The record followed here is paper PMC8809517, “Cofactor-independent RNA editing by a synthetic S-type PPR protein”.

Common to all, as to experiment: high-throughput RNA pulldown from lysate on Ni-NTA beads; HRP: 50 mM Tris pH 8, 150 mM NaCl, 1 mM beta-mercaptoethanol, 50 ug/ml BSA, 3 ug/ml yeast RNA, 0.5% heparin; ITC and FP: Tris pH 8, 200 mM KCl, 5% glycerol; MST: 50 mM Tris pH 8, 200 mM NaCl, 1 mM DTT, BSA, heparin, 0.05% Tween 20
Common to all, as to conditions: tags: N-terminal His-eGFP

Data set [1] has as its target T1, GFP-9S library array, motif 4 ND N98V;D124S (synthetic construct, N98V;D124S).
T1 chain: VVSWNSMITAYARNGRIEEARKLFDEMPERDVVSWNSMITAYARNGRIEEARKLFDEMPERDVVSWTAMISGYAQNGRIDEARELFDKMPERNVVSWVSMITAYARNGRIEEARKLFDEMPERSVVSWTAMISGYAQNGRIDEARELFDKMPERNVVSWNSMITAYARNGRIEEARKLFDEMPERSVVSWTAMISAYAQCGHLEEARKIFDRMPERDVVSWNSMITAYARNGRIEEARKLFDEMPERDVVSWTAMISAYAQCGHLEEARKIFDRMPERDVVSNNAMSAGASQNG

The target of data set [2] is T2, GFP-9S library array, motif 4 ND N98T;D124N (synthetic construct, N98T;D124N).
T2 chain: T1 chain with V98T, S124N

For data set [3], the target named is T3, GFP-9S library array, motif 4 ND N98V;D124K (synthetic construct, N98V;D124K).
T3 chain: T1 chain with S124K

The target of data set [4] is T4, GFP-9S library array, motif 4 ND N98H;D124V (synthetic construct, N98H;D124V).
T4 chain: T1 chain with V98H, S124V

For data set [5], the target named is T5, GFP-9S library array, motif 4 ND N98P;D124R (synthetic construct, N98P;D124R).
T5 chain: T1 chain with V98P, S124R

Residue numbers refer to the chain shown, from its start.

One may read the Kd as the constant that tells how readily two partners part at equilibrium. AUUAAACGUGA (ssRNA) [IR-rpoA-A]: the Kd in data set [1] (label: 5' IRDye 800CW) came to 26.8 nM; in data set [2] (label: 5' IRDye 800CW), 8.35 nM; in data set [3] (label: 5' IRDye 800CW), 146 nM; in data set [4] (label: 5' IRDye 800CW), 115 nM; in data set [5] (label: 5' IRDye 800CW), 329 nM.

In the case of AUUAUACGUGA (ssRNA) [IR-rpoA-U], the Kd in data set [1] (label: 5' IRDye 800CW) came out at 50.3 nM; in data set [2] (label: 5' IRDye 800CW), 53.3 nM; in data set [3] (label: 5' IRDye 800CW), 128 nM; in data set [4] (label: 5' IRDye 800CW), 57.3 nM; in data set [5] (label: 5' IRDye 800CW), 245 nM.

In the case of AUUACACGUGA (ssRNA) [Cy5-rpoA], the Kd in data set [1] (label: 5' Cy5) is 69.5 nM; in data set [2] (label: 5' Cy5), 59.8 nM; in data set [3] (label: 5' Cy5), 97.1 nM; in data set [4] (label: 5' Cy5), 81.3 nM; in data set [5] (label: 5' Cy5), 151 nM.

Consider AUUAGACGUGA (ssRNA) [Cy5-rpoA-G], for which the Kd was found to be 50.4 nM in data set [1] (label: 5' Cy5); 59 nM in data set [2] (label: 5' Cy5); 91.4 nM in data set [3] (label: 5' Cy5); 95.2 nM in data set [4] (label: 5' Cy5); 166 nM in data set [5] (label: 5' Cy5).
